# Source: patent publication US20070082002A1 (IDEC PHARMACEUTICALS, published 2007)
# B1: RF-2 human monoclonal antibody to RSV F-protein (antibody, human IgG1, V domains shown)
# VH: QVQLQESGPALVKPTQTLTLTCTFSGFSLSTRGMSVNWIRQPPGKALEWLARIDWDDDTFYSASLKTRLSISKDTSKNQVVLRMTNVDPVDTATYFCARASLYDSDSFYLFYHAYWGQGTVVTVSS
# VL: DIQMTQSPSSLSASVGDRVTITCRASQSIASYVNWYQQKPGKAPKVLIFASANLVSGVPSRFSGSGSGTVFTLTISNLQPEDFATYFCQQSYTNFSFGQGTKLEIK
# notes: Tested as natural human IgG1 kappa, protein A purified from supernatant of the tumor cell line from hu-SPL-SCID mouse #15; The early preparation held at least two antibody populations
# B2: RF-1 human monoclonal antibody to RSV F-protein (antibody, human IgG1, V domains shown)
# VH: QVQLQESGPVVVKPTETLTLTCTVSGFSLSNPRMGVTWIRQPPGKALEWLGNIFSSDEKSFSPSLKSRLTTSQDTSRSQVVLSLTNVDPVDTATYYCARVGLYDINAYYLYYLDYWGQGTLVTVSS
# VL: DIQMTQSPSSLSASVGDRVTITCRAGQRIASYLNWYQHKPGKAPKLLIYAGSNLHRGVPSRFSGGGSGTDFTLTINSLQPEDFATYYCQQAYSTPWTFGPGTKVEIK
# notes: Tested as natural human IgG1 kappa, protein A purified from supernatant of the EBV-positive tumor cell line from hu-SPL-SCID mouse #6
# Tests used:
# [1] = target: F-protein of RSV RS Long (Type A prototype) in infected VERO cells (respiratory syncytial virus, Long …, UniProt P12568 26-574); experiment: cell-based or functional assay
# Sequence of F-protein of RSV RS Long (Type A prototype) in infected VERO cells (P12568 26-574): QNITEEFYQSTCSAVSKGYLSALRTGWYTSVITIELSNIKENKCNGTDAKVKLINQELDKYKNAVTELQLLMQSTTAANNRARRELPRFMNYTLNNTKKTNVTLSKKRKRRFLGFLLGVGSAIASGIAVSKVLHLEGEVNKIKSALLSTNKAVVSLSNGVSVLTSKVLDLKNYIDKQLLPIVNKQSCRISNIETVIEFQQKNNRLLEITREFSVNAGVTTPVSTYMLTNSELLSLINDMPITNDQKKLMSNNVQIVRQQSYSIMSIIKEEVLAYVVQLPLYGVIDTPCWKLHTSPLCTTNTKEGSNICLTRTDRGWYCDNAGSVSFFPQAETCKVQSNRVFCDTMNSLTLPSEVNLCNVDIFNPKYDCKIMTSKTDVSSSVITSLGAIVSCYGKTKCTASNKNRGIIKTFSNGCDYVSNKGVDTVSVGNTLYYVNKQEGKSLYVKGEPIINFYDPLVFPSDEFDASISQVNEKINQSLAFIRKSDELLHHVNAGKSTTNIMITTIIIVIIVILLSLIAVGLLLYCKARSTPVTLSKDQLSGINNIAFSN
# [2] = target: F-protein of RSV RS 6556 (Type B clinical isolate) in infected VERO cells (respiratory syncytial virus, RS 6556 …); experiment: cell-based or functional assay
# [3] = target: F-protein of RSV MR 144 (Type A) (respiratory syncytial virus, MR 144 …); experiment: cell-based or functional assay
# [4] = target: F-protein of RSV 18537 (Type B) (respiratory syncytial virus, strain …, UniProt P13843 26-574); experiment: cell-based or functional assay
# Sequence of F-protein of RSV 18537 (Type B) (P13843 26-574): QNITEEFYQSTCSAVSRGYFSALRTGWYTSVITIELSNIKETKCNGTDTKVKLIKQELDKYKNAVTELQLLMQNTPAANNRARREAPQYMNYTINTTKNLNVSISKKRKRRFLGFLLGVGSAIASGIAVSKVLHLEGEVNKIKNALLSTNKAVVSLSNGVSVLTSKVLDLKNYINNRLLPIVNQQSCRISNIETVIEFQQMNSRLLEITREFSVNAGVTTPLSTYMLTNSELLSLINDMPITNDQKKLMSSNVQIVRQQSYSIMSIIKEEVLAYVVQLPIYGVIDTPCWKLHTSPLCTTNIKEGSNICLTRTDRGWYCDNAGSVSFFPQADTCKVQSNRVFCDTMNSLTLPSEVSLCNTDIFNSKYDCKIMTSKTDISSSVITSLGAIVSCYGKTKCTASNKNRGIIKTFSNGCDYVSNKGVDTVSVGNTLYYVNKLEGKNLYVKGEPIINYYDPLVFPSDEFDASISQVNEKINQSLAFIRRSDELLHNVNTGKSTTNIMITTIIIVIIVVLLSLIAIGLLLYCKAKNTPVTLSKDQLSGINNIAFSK
# [5] = target: T1, RSV fusion (F) protein, affinity purified from HEp-2 cells infected with the Long strain of RSV (respiratory syncytial virus, Long …, UniProt P12568 26-109; P12568 137-574); experiment: titration micro calorimetry, RF-2 and F-protein in solution
# T1 construct: mature; also called RSV F-protein; soluble F-protein
# T1 sequence (P12568 26-109, chain 1 of 2): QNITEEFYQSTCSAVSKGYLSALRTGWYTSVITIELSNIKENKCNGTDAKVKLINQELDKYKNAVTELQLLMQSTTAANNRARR
# T1 sequence (P12568 137-574, chain 2 of 2): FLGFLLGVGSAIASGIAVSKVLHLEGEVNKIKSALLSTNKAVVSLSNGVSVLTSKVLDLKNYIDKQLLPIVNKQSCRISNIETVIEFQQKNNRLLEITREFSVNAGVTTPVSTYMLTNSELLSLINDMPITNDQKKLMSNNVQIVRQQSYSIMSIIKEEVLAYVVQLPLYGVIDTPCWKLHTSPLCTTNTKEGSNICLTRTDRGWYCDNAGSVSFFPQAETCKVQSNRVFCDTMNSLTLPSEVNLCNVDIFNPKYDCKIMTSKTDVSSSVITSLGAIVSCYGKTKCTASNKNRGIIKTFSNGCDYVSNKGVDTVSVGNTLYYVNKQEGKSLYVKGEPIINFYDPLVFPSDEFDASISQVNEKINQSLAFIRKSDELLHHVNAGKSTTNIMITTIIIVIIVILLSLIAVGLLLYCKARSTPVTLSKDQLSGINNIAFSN
# [6] = target: T1, RSV fusion (F) protein, affinity …; experiment: ELISA, plate coated with purified F-protein, GAH IgG-HRP detection
# [7] = target: T1, RSV fusion (F) protein, affinity …; experiment: plasmon resonance on an IASYS machine, antibody bound covalently, F-protein in solution
Binder,Fusion Inhibition activity ED50 titer [1],Fusion Inhibition activity ED50 titer [2],Infection Neutralization Activity ED50 titer [3],Infection Neutralization Activity ED50 titer [4],Kd [5],EC50 [6],Kd [7]
B1,3.3 µg/mL,0.4 µg/mL,0.008 µg/mL,0.012 µg/mL,2 nM,0.001 µg/mL,
B2,0.66 µg/mL,0.04 µg/mL,0.03 µg/mL,0.03 µg/mL,,0.0006 µg/mL,~0.1 nM
